Reference: publication PMC12866175 (European journal of nuclear medicine and molecular imaging, 2021)

Assay: Radiation dosimetry and clearance kinetics from biodistribution data
Assay type: in vivo, BALB/c mice

C[C@@H](O)[C@H](NC(=O)[C@@H]1CSSC[C@H](NC(=O)[C@@H](Cc2ccccc2)NC(=O)CN2CCN(CC(=O)O)CCN(CC(=O)O)CCN(CC(=O)O)CC2)C(=O)N[C@@H](Cc2ccc(O)cc2)C(=O)N[C@H](Cc2c[nH]c3ccccc23)C(=O)N[C@@H](CCCCN)C(=O)N[C@@H]([C@@H](C)O)C(=O)N1)C(=O)O [[^225Ac]Ac-DOTA-TATE, metal not drawn]
Absorbed dose/injected activity (^213Bi, Blood): 0.0000 Gy/kBq
Accumulated activity/organ, A~ (^213Bi, Blood): 0.2345 kBq×h
Decay rate constant, λeff (^213Bi, Blood): 0.011 h⁻¹
Initial activity/organ, A○ (^213Bi, Blood): 0.0042 kBq
Absorbed dose/injected activity (^213Bi, Bone): 0.0000 Gy/kBq
Accumulated activity/organ, A~ (^213Bi, Bone): 0.9591 kBq×h
Decay rate constant, λeff (^213Bi, Bone): 0.0070 h⁻¹
Initial activity/organ, A○ (^213Bi, Bone): 0.0125 kBq
Absorbed dose/injected activity (^213Bi, Brain): 0.0000 Gy/kBq
Accumulated activity/organ, A~ (^213Bi, Brain): 0.4653 kBq×h
Decay rate constant, λeff (^213Bi, Brain): 0.0080 h⁻¹
Initial activity/organ, A○ (^213Bi, Brain): 0.0066 kBq
Absorbed dose/injected activity (^213Bi, Heart): 0.0000 Gy/kBq
Accumulated activity/organ, A~ (^213Bi, Heart): 0.5789 kBq×h
Decay rate constant, λeff (^213Bi, Heart): 0.0030 h⁻¹
Initial activity/organ, A○ (^213Bi, Heart): 0.0053 kBq
Absorbed dose/injected activity (^213Bi, Intestine): 0.0000 Gy/kBq
Accumulated activity/organ, A~ (^213Bi, Intestine): 3.6681 kBq×h
Decay rate constant, λeff (^213Bi, Intestine): 0.0210 h⁻¹
Initial activity/organ, A○ (^213Bi, Intestine): 0.1340 kBq
Absorbed dose/injected activity (^213Bi, Kidney): 0.0000 Gy/kBq
Accumulated activity/organ, A~ (^213Bi, Kidney): 7.7700 kBq×h
Decay rate constant, λeff (^213Bi, Kidney): 0.0250 h⁻¹
Initial activity/organ, A○ (^213Bi, Kidney): 0.3639 kBq
Absorbed dose/injected activity (^213Bi, Liver): 0.0000 Gy/kBq
Accumulated activity/organ, A~ (^213Bi, Liver): 28.7854 kBq×h
Decay rate constant, λeff (^213Bi, Liver): -0.0073 h⁻¹
Initial activity/organ, A○ (^213Bi, Liver): 0.0948 kBq
Absorbed dose/injected activity (^213Bi, Lung): 0.0000 Gy/kBq
Accumulated activity/organ, A~ (^213Bi, Lung): 0.9636 kBq×h
Decay rate constant, λeff (^213Bi, Lung): 0.0170 h⁻¹
Initial activity/organ, A○ (^213Bi, Lung): 0.0270 kBq
Absorbed dose/injected activity (^213Bi, Muscle): 0.0000 Gy/kBq
Accumulated activity/organ, A~ (^213Bi, Muscle): 0.3058 kBq×h
Decay rate constant, λeff (^213Bi, Muscle): 0.0050 h⁻¹
Initial activity/organ, A○ (^213Bi, Muscle): 0.0034 kBq
Absorbed dose/injected activity (^213Bi, Pancreas): 0.0000 Gy/kBq
Accumulated activity/organ, A~ (^213Bi, Pancreas): 0.5253 kBq×h
Decay rate constant, λeff (^213Bi, Pancreas): 0.0140 h⁻¹
Initial activity/organ, A○ (^213Bi, Pancreas): 0.0119 kBq
Absorbed dose/injected activity (^213Bi, Salivary): 0.000 Gy/kBq
Accumulated activity/organ, A~ (^213Bi, Salivary): 0.6047 kBq×h
Decay rate constant, λeff (^213Bi, Salivary): 0.0030 h⁻¹
Initial activity/organ, A○ (^213Bi, Salivary): 0.0056 kBq
Absorbed dose/injected activity (^213Bi, Skin): 0.000 Gy/kBq
Accumulated activity/organ, A~ (^213Bi, Skin): 0.5575 kBq×h
Decay rate constant, λeff (^213Bi, Skin): 0.0040 h⁻¹
Initial activity/organ, A○ (^213Bi, Skin): 0.0056 kBq
Absorbed dose/injected activity (^213Bi, Spleen): 0.0000 Gy/kBq
Accumulated activity/organ, A~ (^213Bi, Spleen): 1.2470 kBq×h
Decay rate constant, λeff (^213Bi, Spleen): -0.0024 h⁻¹
Initial activity/organ, A○ (^213Bi, Spleen): 0.0068 kBq
Absorbed dose/injected activity (^213Bi, Stomach): 0.0000 Gy/kBq
Accumulated activity/organ, A~ (^213Bi, Stomach): 2.4230 kBq×h
Decay rate constant, λeff (^213Bi, Stomach): 0.0190 h⁻¹
Initial activity/organ, A○ (^213Bi, Stomach): 0.0777 kBq
Absorbed dose/injected activity (^213Po, Blood): 0.0000 Gy/kBq
Accumulated activity/organ, A~ (^213Po, Blood): 0.2345 kBq×h
Decay rate constant, λeff (^213Po, Blood): 0.0110 h⁻¹
Initial activity/organ, A○ (^213Po, Blood): 0.0042 kBq
Absorbed dose/injected activity (^213Po, Bone): 0.0004 Gy/kBq
Accumulated activity/organ, A~ (^213Po, Bone): 0.9591 kBq×h
Decay rate constant, λeff (^213Po, Bone): 0.0070 h⁻¹
Initial activity/organ, A○ (^213Po, Bone): 0.0125 kBq
Absorbed dose/injected activity (^213Po, Brain): 0.0001 Gy/kBq
Accumulated activity/organ, A~ (^213Po, Brain): 0.4653 kBq×h
Decay rate constant, λeff (^213Po, Brain): 0.0080 h⁻¹
Initial activity/organ, A○ (^213Po, Brain): 0.0066 kBq
Absorbed dose/injected activity (^213Po, Heart): 0.0002 Gy/kBq
Accumulated activity/organ, A~ (^213Po, Heart): 0.5789 kBq×h
Decay rate constant, λeff (^213Po, Heart): 0.0030 h⁻¹
Initial activity/organ, A○ (^213Po, Heart): 0.0053 kBq
Absorbed dose/injected activity (^213Po, Intestine): 0.0001 Gy/kBq
Accumulated activity/organ, A~ (^213Po, Intestine): 3.6681 kBq×h
Decay rate constant, λeff (^213Po, Intestine): 0.0210 h⁻¹
Initial activity/organ, A○ (^213Po, Intestine): 0.1340 kBq
Absorbed dose/injected activity (^213Po, Kidney): 0.0015 Gy/kBq
Accumulated activity/organ, A~ (^213Po, Kidney): 7.7700 kBq×h
Decay rate constant, λeff (^213Po, Kidney): 0.0250 h⁻¹
Initial activity/organ, A○ (^213Po, Kidney): 0.3639 kBq
Absorbed dose/injected activity (^213Po, Liver): 0.0016 Gy/kBq
Accumulated activity/organ, A~ (^213Po, Liver): 28.7854 kBq×h
Decay rate constant, λeff (^213Po, Liver): -0.0073 h⁻¹
Initial activity/organ, A○ (^213Po, Liver): 0.0948 kBq
Absorbed dose/injected activity (^213Po, Lung): 0.0002 Gy/kBq
Accumulated activity/organ, A~ (^213Po, Lung): 0.9636 kBq×h
Decay rate constant, λeff (^213Po, Lung): 0.0170 h⁻¹
Initial activity/organ, A○ (^213Po, Lung): 0.0270 kBq
Absorbed dose/injected activity (^213Po, Muscle): 0.0001 Gy/kBq
Accumulated activity/organ, A~ (^213Po, Muscle): 0.3058 kBq×h
Decay rate constant, λeff (^213Po, Muscle): 0.0050 h⁻¹
Initial activity/organ, A○ (^213Po, Muscle): 0.0034 kBq
Absorbed dose/injected activity (^213Po, Pancreas): 0.0002 Gy/kBq
Accumulated activity/organ, A~ (^213Po, Pancreas): 0.5253 kBq×h
Decay rate constant, λeff (^213Po, Pancreas): 0.0140 h⁻¹
Initial activity/organ, A○ (^213Po, Pancreas): 0.0119 kBq
Absorbed dose/injected activity (^213Po, Salivary): 0.0002 Gy/kBq
Accumulated activity/organ, A~ (^213Po, Salivary): 0.6047 kBq×h
Decay rate constant, λeff (^213Po, Salivary): 0.0030 h⁻¹
Initial activity/organ, A○ (^213Po, Salivary): 0.0056 kBq
Absorbed dose/injected activity (^213Po, Skin): 0.0001 Gy/kBq
Accumulated activity/organ, A~ (^213Po, Skin): 0.5575 kBq×h
Decay rate constant, λeff (^213Po, Skin): 0.0040 h⁻¹
Initial activity/organ, A○ (^213Po, Skin): 0.0056 kBq
Absorbed dose/injected activity (^213Po, Spleen): 0.0006 Gy/kBq
Accumulated activity/organ, A~ (^213Po, Spleen): 1.2470 kBq×h
Decay rate constant, λeff (^213Po, Spleen): -0.0024 h⁻¹
Initial activity/organ, A○ (^213Po, Spleen): 0.0068 kBq
Absorbed dose/injected activity (^213Po, Stomach): 0.0005 Gy/kBq
Accumulated activity/organ, A~ (^213Po, Stomach): 2.4230 kBq×h
Decay rate constant, λeff (^213Po, Stomach): 0.0190 h⁻¹
Initial activity/organ, A○ (^213Po, Stomach): 0.0777 kBq
Absorbed dose/injected activity (^217At, Blood): 0.001 Gy/kBq
Accumulated activity/organ, A~ (^217At, Blood): 0.5594 kBq×h
Initial activity/organ, A○ (^217At, Blood): 0.0019 kBq
Absorbed dose/injected activity (^217At, Bone): 0.0003 Gy/kBq
Accumulated activity/organ, A~ (^217At, Bone): 1.0195 kBq×h
Decay rate constant, λeff (^217At, Bone): 0.0100 h⁻¹
Initial activity/organ, A○ (^217At, Bone): 0.0170 kBq
Absorbed dose/injected activity (^217At, Brain): 0.0001 Gy/kBq
Accumulated activity/organ, A~ (^217At, Brain): 0.7934 kBq×h
Decay rate constant, λeff (^217At, Brain): -0.0044 h⁻¹
Initial activity/organ, A○ (^217At, Brain): 0.0036 kBq
Absorbed dose/injected activity (^217At, Heart): 0.00001 Gy/kBq
Accumulated activity/organ, A~ (^217At, Heart): 0.2102 kBq×h
Decay rate constant, λeff (^217At, Heart): 0.0190 h⁻¹
Initial activity/organ, A○ (^217At, Heart): 0.0067 kBq
Absorbed dose/injected activity (^217At, Intestine): 0.0002 Gy/kBq
Accumulated activity/organ, A~ (^217At, Intestine): 7.2991 kBq×h
Decay rate constant, λeff (^217At, Intestine): 0.0130 h⁻¹
Initial activity/organ, A○ (^217At, Intestine): 0.1532 kBq
Absorbed dose/injected activity (^217At, Kidney): 0.0021 Gy/kBq
Accumulated activity/organ, A~ (^217At, Kidney): 12.5136 kBq×h
Decay rate constant, λeff (^217At, Kidney): 0.0190 h⁻¹
Initial activity/organ, A○ (^217At, Kidney): 0.4011 kBq
Absorbed dose/injected activity (^217At, Liver): 0.0016 Gy/kBq
Accumulated activity/organ, A~ (^217At, Liver): 32.1637 kBq×h
Decay rate constant, λeff (^217At, Liver): -0.0033 h⁻¹
Initial activity/organ, A○ (^217At, Liver): 0.1612 kBq
Accumulated activity/organ, A~ (^217At, Lung): 1.7734 kBq×h
Decay rate constant, λeff (^217At, Lung): 0.0080 h⁻¹
Initial activity/organ, A○ (^217At, Lung): 0.251 kBq
Absorbed dose/injected activity (^217At, Muscle): 0.00000 Gy/kBq
Accumulated activity/organ, A~ (^217At, Muscle): 0.1848 kBq×h
Decay rate constant, λeff (^217At, Muscle): 0.0170 h⁻¹
